The text below walks through data of patent US20130064834A1 (published 2013).

Test [1] concerns the target T1, Human PCSK9-myc-myc-his (human, UniProt Q8NBP7 31-692).
T1 construct: also called hPCSK9-mmh; hPCSK9
The test can be described thus: SPR, mAb captured, 37C. For orientation: Surface plasmon resonance follows binding to a sensor surface in real time, without labels.
Procedure: Each selected antibody was captured at a flowrate of 2 μl/min for 6 min on a goat anti-human IgG polyclonal antibody surface created through direct chemical coupling to a BIACORE™ chip to form a captured antibody surface.

Test [2] deals with T1, Human PCSK9-myc-myc-his. The test can be described thus: SPR, mAb captured on anti-hFc, 37C.
The target of test [3] is T2, hPCSK9(D374Y)-mmh (human, UniProt Q8NBP7 31-692).
T2 construct: also called hPCSK(D374Y)-mmh
The test can be described thus: SPR, mAb captured on anti-hFc, 37C.

The target of test [4] is T3, tagged rhesus monkey (Macaca mulata) PCSK9 (rhesus monkey (Macaca mulata), UniProt A8T666 31-692).
T3 construct: also called mmPCSK9-mmh; mmPCSK9
T3 sequence (A8T666 31-692 limits assumed): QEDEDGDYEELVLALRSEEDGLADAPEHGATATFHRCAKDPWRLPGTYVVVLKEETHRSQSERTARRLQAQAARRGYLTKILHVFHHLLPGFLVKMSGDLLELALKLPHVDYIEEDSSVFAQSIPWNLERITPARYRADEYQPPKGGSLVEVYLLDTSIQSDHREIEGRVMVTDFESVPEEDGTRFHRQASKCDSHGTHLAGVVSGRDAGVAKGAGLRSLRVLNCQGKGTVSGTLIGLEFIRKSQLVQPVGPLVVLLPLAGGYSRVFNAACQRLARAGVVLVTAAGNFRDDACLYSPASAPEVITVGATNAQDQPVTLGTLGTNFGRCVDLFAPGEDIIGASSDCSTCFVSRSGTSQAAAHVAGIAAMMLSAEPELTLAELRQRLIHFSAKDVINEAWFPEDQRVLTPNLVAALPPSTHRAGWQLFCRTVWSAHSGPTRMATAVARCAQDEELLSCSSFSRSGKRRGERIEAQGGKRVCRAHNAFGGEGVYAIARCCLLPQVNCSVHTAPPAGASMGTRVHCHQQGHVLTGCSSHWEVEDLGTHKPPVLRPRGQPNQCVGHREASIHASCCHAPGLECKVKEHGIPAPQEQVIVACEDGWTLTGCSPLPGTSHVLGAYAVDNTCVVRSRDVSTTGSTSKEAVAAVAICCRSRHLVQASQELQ
The test can be described thus: SPR, mAb captured on anti-hFc, 37C.

In test [5] the target is T4, cynomolgus monkey (Macaca fascicularis) PCSK9, myc-myc-his tagged (cynomolgus monkey (Macaca fascicularis), UniProt A8T662 31-692 (Macaca nemestrina entry), limits assumed).
T4 construct: also called mfPCSK9-mmh; mfPCSK9
T4 sequence (A8T662 31-692 limits assumed): as the sequence (A8T666 31-692 limits assumed) above, with P607A, K639E counted along it
The test can be described thus: SPR, mAb captured on anti-hFc, 37C.

In test [6] the target is T5, mouse PCSK9, myc-myc-his tagged (mouse, UniProt Q80W65 35-694).
T5 construct: also called mPCSK9-mmh; mPCSK9
The test can be described thus: SPR, mAb captured on anti-hFc, 37C.

Test [7] addresses T6, his-tagged Syrian golden hamster (Mesocricetus auratus) PCSK9 (Syrian golden hamster (Mesocricetus …)).
T6 construct: also called maPCSK9-h; maPCSK9
T6 chain: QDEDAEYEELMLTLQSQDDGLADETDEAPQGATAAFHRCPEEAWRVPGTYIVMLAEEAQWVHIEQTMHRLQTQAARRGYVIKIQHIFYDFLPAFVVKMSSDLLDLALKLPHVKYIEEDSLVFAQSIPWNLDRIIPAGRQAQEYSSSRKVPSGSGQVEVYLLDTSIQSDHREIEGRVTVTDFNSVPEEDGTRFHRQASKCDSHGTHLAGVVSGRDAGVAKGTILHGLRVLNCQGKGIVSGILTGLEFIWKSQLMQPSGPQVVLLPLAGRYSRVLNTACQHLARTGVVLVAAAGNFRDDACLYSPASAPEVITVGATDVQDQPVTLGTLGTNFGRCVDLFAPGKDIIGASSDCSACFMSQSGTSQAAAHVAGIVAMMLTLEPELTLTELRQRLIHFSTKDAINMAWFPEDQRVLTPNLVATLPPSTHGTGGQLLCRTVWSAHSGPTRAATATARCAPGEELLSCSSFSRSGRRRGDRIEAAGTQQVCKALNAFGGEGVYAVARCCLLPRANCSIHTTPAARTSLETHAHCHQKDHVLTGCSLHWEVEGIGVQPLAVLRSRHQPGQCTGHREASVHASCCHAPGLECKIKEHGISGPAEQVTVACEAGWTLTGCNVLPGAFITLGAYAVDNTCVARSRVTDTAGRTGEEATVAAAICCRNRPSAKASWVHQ
The test can be described thus: SPR, mAb captured on anti-hFc, 37C.

Test [8] concerns the target T7, rat (Rattus norvegicus) PCSK9, myc-myc-his tagged (rat (Rattus norvegicus), UniProt P59996 31-691).
T7 construct: also called rPCSK9-mmh; rPCSK9
The test can be described thus: SPR, mAb captured on anti-hFc, 37C.

Test [9] concerns the target T8, human PCSK7, myc-myc-his tagged (human, UniProt Q16549 142-667, limits assumed).
T8 construct: also called hPCSK7-mmh; hPCSK7
T8 sequence: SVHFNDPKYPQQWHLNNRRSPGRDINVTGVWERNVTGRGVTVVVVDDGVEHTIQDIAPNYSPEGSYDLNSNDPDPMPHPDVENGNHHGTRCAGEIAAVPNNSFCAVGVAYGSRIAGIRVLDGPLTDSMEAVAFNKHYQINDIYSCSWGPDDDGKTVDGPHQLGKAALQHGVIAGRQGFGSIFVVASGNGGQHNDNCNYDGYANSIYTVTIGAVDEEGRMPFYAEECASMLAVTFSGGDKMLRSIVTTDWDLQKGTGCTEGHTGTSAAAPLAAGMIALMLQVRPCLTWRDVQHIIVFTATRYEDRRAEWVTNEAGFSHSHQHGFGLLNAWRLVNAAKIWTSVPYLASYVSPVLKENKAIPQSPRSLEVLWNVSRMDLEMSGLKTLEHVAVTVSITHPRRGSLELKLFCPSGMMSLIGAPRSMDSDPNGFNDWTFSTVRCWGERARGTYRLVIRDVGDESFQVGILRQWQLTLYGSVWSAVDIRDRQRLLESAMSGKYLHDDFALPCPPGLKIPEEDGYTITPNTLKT
The test can be described thus: SPR, mAb captured on anti-hFc, 25C.

The target of test [10] is T1, Human PCSK9-myc-myc-his. The test can be described thus: SPR, mAb captured on anti-hFc, 37C. The source holds these as a separate data set.
Test [11] addresses T2, hPCSK9(D374Y)-mmh. The test can be described thus: SPR, mAb captured on anti-hFc, 37C. This is another data set of the same source.
The target in test [12] is T3, tagged rhesus monkey (Macaca mulata) …. The test can be described thus: SPR, mAb captured on anti-hFc, 37C. This is another data set of the same source.
Test [13] has as its target T4, cynomolgus monkey (Macaca fascicularis) …. The test can be described thus: SPR, mAb captured on anti-hFc, 37C. The source holds these as a separate data set.

Where two headings read alike, the source gives them in different places.

The term Kd denotes the constant that tells how readily two partners part at equilibrium.

T7 sequence (P59996 31-691 limits assumed): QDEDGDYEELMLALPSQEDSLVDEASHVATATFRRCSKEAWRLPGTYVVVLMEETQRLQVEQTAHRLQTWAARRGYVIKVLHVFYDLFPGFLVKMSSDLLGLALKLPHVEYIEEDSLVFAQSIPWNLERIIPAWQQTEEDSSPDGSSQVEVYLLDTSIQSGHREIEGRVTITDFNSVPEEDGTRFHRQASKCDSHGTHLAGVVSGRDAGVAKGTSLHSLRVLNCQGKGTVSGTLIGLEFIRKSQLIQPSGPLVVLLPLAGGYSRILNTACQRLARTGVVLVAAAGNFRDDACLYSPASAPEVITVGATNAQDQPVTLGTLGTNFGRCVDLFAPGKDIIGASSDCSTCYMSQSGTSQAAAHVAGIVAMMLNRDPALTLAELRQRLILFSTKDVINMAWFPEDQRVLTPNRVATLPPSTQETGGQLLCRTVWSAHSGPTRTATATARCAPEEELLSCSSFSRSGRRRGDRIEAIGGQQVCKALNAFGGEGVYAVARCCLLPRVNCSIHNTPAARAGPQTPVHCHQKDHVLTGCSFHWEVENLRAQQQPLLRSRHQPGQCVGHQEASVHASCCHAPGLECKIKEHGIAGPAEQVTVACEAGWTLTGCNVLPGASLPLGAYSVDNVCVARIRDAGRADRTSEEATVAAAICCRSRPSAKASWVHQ

B1: H1H316P (antibody, V domains shown)
VH: EVQLVESGGGLVQPGGSLRLSCAASGFTFNNYAMNWVRQAPGKGLDWVSTISGSGGTTNYADSVKGRFIISRDSSKHTLYLQMNSLRAEDTAVYYCAKDSNWGNFDLWGRGTLVTVSS
VL: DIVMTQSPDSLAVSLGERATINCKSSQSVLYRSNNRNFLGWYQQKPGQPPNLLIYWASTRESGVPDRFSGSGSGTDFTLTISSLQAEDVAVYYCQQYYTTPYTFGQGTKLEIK
notes: Fully human mAb made in CHO cells; also called mAb316P
Regarding B1, the equilibrium dissociation constant (Kd) turned out to be 1.08 nM with Human PCSK9-myc-myc-his [1]; 1.8 nM with Human PCSK9-myc-myc-his [2]; 4.2 nM with hPCSK9(D374Y)-mmh [3]; 1.8 nM in [4]; 1.8 nM in test [5]; 4.7 nM in test [6]. The dissociation constant Kd came out at 19 nM in test [7] and 37.5 nM in test [8]. In addition, the T1/2 is 11 min with Human PCSK9-myc-myc-his [1]; 9 min with Human PCSK9-myc-myc-his [2]; 4 min with hPCSK9(D374Y)-mmh [3]; 21 min in [4]; 11 min in test [5]; 3 min in test [6]. Also, the T1/2 in test [7] and in test [8] was 1 min each time.

B2: H1M300N (antibody, V domains shown)
VH: EMQLVESGGGLVQPGGSLRLSCAASGFTFSSHWMKWVRQAPGKGLEWVANINQDGSEKYYVDSVKGRFTISRDNAKNSLFLQMNSLRAEDTAVYYCARDIVLMVYDMDYYYYGMDVWGQGTTVTVSS
VL: not shown
notes: Fully human version made in CHO cells
For B2, the binding result in test [9] was “no binding (tested: 100 nM)”. For the same molecule, the dissociation constant Kd with Human PCSK9-myc-myc-his [10] came to 2.4 nM; with hPCSK9(D374Y)-mmh [11], 2.2 nM; in test [12] it was 1.6 nM; in test [13], 3.8 nM. Further, the T1/2 with Human PCSK9-myc-myc-his [10] was determined as 22 min; in the test with hPCSK9(D374Y)-mmh [11], 14 min; in test [12], 26 min; in [13], 11 min.
